Laboratory results published in patent US10646600B2, “HER2 polypeptides useful for imaging and monitoring tumors and cancers” (GE HEALTHCARE LIMITED, priority 2013, dated 2020).

What was measured:
[1] = Metabolic stability, plasma radio-HPLC; assay type: in vivo, mice; details: 3.7 MBq i.v., 10, 30 and 60 minutes post injection
Description: At 10, 30 and 60 minute post injection, mice were exsanguinated via cardiac puncture and blood removed for centrifugation. Plasma was obtained and kept on ice for analysis of radioactive metabolites by HPLC.

[2] = test system: HER2 negative and p95HER2 transfected cell lines; assay: In vitro uptake assay, HER2 negative and p95HER2 transfected cell lines; assay type: cell-based, human; details: across all HER2 negative and p95HER2 transfected lines, 60 minutes
Text: MCF7-vector (piRES), MCF7-p95HER2 and MCF7-HER2 cells were a kind gift of Jose Baselga's laboratory (17). MCF7 clones, MDA-MB-231 (ATCC, Manassas, Va.), MDA-MB-361 (Sigma-Aldrich), SKBR-3 (ATCC) and SKOV-3 (Sigma-Aldrich) cells were maintained in DMEM. AGS (Sigma-Aldrich), HGC-27 (Sigma-Aldrich), NCI-N87 (ATCC) and OE-33 (ATCC) cells were maintained in RPMI (Sigma-Aldrich). A431 cells (Sigma-Aldrich) were maintained in MEM Eagle medium (Sigma-Aldrich). Growth media were supplemented with 10% FCS (Lonza, Basel, Switzerland), glutamine and antibiotics (both Invitrogen, Paisley, United Kingdom). A431 cells were additionally supplemented with 1% non-essential amino acids. All cells were cultured at 37° C. in a humidified atmosphere containing 5% CO2.
For baseline uptake in HER2 positive or negative lineages, 3×10^5 cells were seeded in complete media in 12-well plates (Corning, Tewksbury Mass.) and allowed to recover overnight. Cells were washed twice with serum-free medium and pulsed with 370 KBq in 500 μL serum-free medium for one h. […]
Cells were washed with PBS, trypsinized, neutralized with complete medium and centrifuged. […] The radioactivity of 100 μL lysate was counted on a Packard Cobra II gamma counter (Perkin Elmer). Radioactivity was normalized to applied radioactivity and protein content, which was determined for each sample by BCA assay (Pierce, Rockford, Ill.). […]

Question: Which results are given for “[^18F]GE-226: HER2-binding 18F-radiolabelled Affibody molecule ZHER2:2891”?
Answer: metabolic stability [1]: metabolically stable; metabolic stability ([1]; listed as tracer): stable in vivo; background uptake [2]: 1.2±0.5 % applied radioactivity per mg protein
